# T1: prodystroglycan (DAG1_(28-340)) (Homo sapiens, UniProt Q14118 28-340, R311A | R312A)
# T1 sequence: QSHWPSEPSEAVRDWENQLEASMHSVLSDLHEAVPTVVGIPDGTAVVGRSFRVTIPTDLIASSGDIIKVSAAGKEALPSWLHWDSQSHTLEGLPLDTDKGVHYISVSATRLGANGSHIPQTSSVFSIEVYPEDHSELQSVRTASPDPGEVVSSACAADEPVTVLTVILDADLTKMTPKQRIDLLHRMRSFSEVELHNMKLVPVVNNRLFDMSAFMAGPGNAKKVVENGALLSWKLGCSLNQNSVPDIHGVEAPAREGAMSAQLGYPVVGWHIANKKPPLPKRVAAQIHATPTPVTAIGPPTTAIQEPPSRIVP
# B1: LARGE1dTM (enzyme)
# chain: FEDGKPVSLSPLESQAHSPRYTASSQRERESLEVRMREVEEENRALRRQLSLAQGRAPSHRRGNHSKTYSMEEGTGDSENLRAGIVAGNSSECGQQPVVEKCETIHVAIVCAGYNASRDVVTLVKSVLFHRRNPLHFHLIADSIAEQILATLFQTWMVPAVRVDFYNADELKSEVSWIPNKHYSGIYGLMKLVLTKTLPANLERVIVLDTDITFATDIAELWAVFHKFKGQQVLGLVENQSDWYLGNLWKNHRPWPALGRGYNTGVILLLLDKLRKMKWEQMWRLTAERELMGMLSTSLADQDIFNAVIKQNPFLVYQLPCFWNVQLSDHTRSEQCYRDVSDLKVIHWNSPKKLRVKNKHVEFFRNLYLTFLEYDGNLLRRELFGCPSEADVNSENLQKQLSELDEDDLCYEFRRERFTVHRTHLYFLHYEYEPAADSTDVTLVAQLSMDRLQMLEAICKHWEGPISLALYLSDAEAQQFLRYAQGSEVLMSRHNVGYHIVYKEGQFYPVNLLRNVAMKHISTPYMFLSDIDFLPMYGLYEYLRKSVIQLDLANTKKAMIVPAFETLRYRLSFPKSKAELLSMLDMGTLFTFRYHVWTKGHAPTNFAKWRTATTPYRVEWEADFEPYVVVRRDCPEYDRRFVGFGWNKVAHIMELDVQEYEFIVLPNAYMIHMPHAPSFDITKFRSNKQYRICLKTLKEEFQQDMSRRYGFAALKYLTAENNS
# modifications: N-glycans; NHS-red label in the microscale thermophoresis experiments
# notes: LARGE1 lacking the transmembrane domain; soluble secreted construct; Homodimer by cryo-EM and SEC-MALS; also called Like-acetylglucosaminyltransferase-1; apo-LARGE1dTM; source: HEK293-F, stably transfected, secreted, purified (TALON resin)
# Experiments:
# [1] = target: the molecule itself; assay: SEC-MALS; Superdex 200 Increase 10/300 GL, 20 mM HEPES pH 7.4, 150 mM NaCl, samples 4-8 mg/mL, on line with SAXS
# [2] = target: T1, prodystroglycan (DAG1_(28-340)); assay: MST
binder,measurement,setting,value
B1,stoichiometry N,[1],2
same,Kd,[2],~180 nM

# — paper PMC12514197, “LARGE1 processively polymerizes length-controlled matriglycan on prodystroglycan” (Nature Communications, 2025)
